Biological target: mCherry^N-gp418^N chimeric protein

gp418^C-mCherry^C chimeric protein
concurrent in situ splicing in a four-strain E. coli co-culture: mCherry fluorescence (580 nm excitation-610 nm emission) of the purified protein mixture: 35000 a.u.

— PMC12062136
